Test results: publication PMC10665427, “The heat shock protein LarA activates the Lon protease in response to proteotoxic stress” (Nature Communications, 2023)

B1: N-terminally 3xFLAG-tagged LarA [C. crescentus] / Lon, endogenous [C. crescentus (endogenous in WT cells)] (parent complex)
chain 1: MTPSTQHSRPLTSEAFAALGAPALVYVRPIKAAEILADAPEGVEDLDLSPDQTLYAVCRADGERLAVLIDRDTAIAAALAHELAPVSVH
chain 2: MSELRTLPVLPLRDIVVFPHMVVPLFVGRDKSVRALEEVMRGDKQILLVTQKNSADDDPAPGDIFEVGVLATVLQLLKLPDGTVKVLVEGKARAAVVSFTDQESYYEAQIGEVSEDDGAGPEAEALSRAVVEQFENYVKLNKKVPPEALASIPQIAEPGKLADSIAAHLSVKIGDKQNLLEIFDVVKRLEKVFALMEGEISVLQVEKKIRSRVKRQMEKTQREYYLNEQMKAIQRELGDPDDARDELIDLEKRIKKTKLSKEARTKAESELKKLRNMSPMSAESTVVRNYLDWLLSIPWGKAKTKKIDLVESEGILDADHYGLEKVKERILEYLAVQARTNSLKGPILCLVGPPGVGKTSLGKSIAKATGREFVRMSLGGVRDEAEIRGHRRTYIGSMPGKVVQSMKKAKTTNAFVLLDEIDKMGSDYRGDPASALLEVLDPSQNSTFGDHYLEVDYDLSQVMFVTTANSLNMPQPLLDRMEIIRIPGYTEDEKLEIAKRHILPKLAKDHGLKPAEFIVPDKAIRDLIRYYTREAGVRSLERELGALARKTVRDLAREKVASITIDDERLAKYAGVKKYRYGETDEVDQVGIVTGLAWTEFGGDILTIEAVKMPGKGRMQITGNLKDVMKESIAAANSYVRSRALQFGIKPPVFEKTDVHIHVPDGATPKDGPSAGIAMALAMVSVLTGIPIRKDIAMTGEITLRGRVTAIGGLKEKLLAALRSGVKTVLIPQENEKDLADVPQTVKDGLEIIPVSTVDEVLKHALTGPLTPVEWNEAEEPITTSAKKDDGDSDAMLTH

Variants of: B1
Test: co-immunoprecipitation (α-FLAG IP, anti-Lon immunoblot quantified); WT cells, Pxyl-3xFLAG-larA variants induced one hour with xylose prior to cell lysis and IP; n = 3; parent: 4.5; read off a plot

Row | Variant | response
1 | chain 1 V88D, chain 1 H89D | ~1 relative Lon level (vs VC = 1)
2 | chain 1 V86A, chain 1 V88A | ~1.7 relative Lon level (vs VC = 1)
